Experimental data as given in IntAct's records for PubMed 31254514.

B1: Beta-crystallin A4 (Homo sapiens), P53673 (parent)
chain: MTLQCTKSAGPWKMVVWDEDGFQGRRHEFTAECPSVLELGFETVRSLKVLSGAWVGFEHAGFQGQQYILERGEYPSWDAWGGNTAYPAERLTSFRPAACANHRDSRLTIFEQENFLGKKGELSDDYPSLQAMGWEGNEVGSFHVHSGAWVCSQFPGYRGFQYVLECDHHSGDYKHFREWGSHAPTFQVQSIRRIQQ
partner: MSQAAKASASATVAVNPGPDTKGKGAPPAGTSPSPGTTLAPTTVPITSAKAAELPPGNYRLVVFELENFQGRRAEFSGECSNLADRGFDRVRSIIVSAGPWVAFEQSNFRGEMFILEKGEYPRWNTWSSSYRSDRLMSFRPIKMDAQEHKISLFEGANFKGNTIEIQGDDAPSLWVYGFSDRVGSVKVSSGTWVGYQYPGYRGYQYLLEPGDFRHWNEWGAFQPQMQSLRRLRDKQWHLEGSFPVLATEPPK
B2: Beta-crystallin A4 (Homo sapiens), P53673 (parent)
chain: B1 chain
partner: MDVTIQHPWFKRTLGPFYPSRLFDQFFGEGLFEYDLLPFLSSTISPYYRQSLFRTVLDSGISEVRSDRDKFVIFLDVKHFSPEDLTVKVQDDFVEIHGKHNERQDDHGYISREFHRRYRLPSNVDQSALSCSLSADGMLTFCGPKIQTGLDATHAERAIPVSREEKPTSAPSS

Variants of: B1
Details: with crbb1_human CRYBB1, P53674
For MTLQCTKSAGPWKMVVWDEDGFQGRRHEFTAECPSVLELGFETVRSLKVLSGAWVGFEHAGFQWQQYILERGEYPSWDAWGGNTAYPAERLTSFRPAACANHRDSRLTIFEQENFLGKKGELSDDYPSLQAMGWEGNEVGSFHVHSGAWVCSQFPGYRGFQYVLECDHHSGDYKHFREWGSHAPTFQVQSIRRIQQ [G64W], the “effect of a mutation on the interaction” value was “disrupting interaction strength”.

Variants of: B2
Details: with cryaa_human CRYAA
With MTLQCTKSAGPWKMVVWDEDGFQGRRHEFTAECPSVLELGFETVRSLKVLSGAWVGFEHAGFQWQQYILERGEYPSWDAWGGNTAYPAERLTSFRPAACANHRDSRLTIFEQENFLGKKGELSDDYPSLQAMGWEGNEVGSFHVHSGAWVCSQFPGYRGFQYVLECDHHSGDYKHFREWGSHAPTFQVQSIRRIQQ [G64W] the “effect of a mutation on the interaction” value was “increasing interaction strength”.
